Experimental data: patent US20100216191A1, “Method for Manufacturing a Modified Peptide” (PROCOMCURE BIOTECH GMBH, priority 2007, published 2010)

Tested on: GST-tagged FnbB
Assay: Pull-down with GST-tagged FnbB, proteins from rabbit reticulocyte translation system
Assay type: binding, S. aureus
Settings: cell-free protein translation system; GST alone as negative control
From the text: Recombinant proteins were produced from the isolated plasmids from the PPI-partners in a rabbit reticulocyte-based translation system and additionally in E. coli cells. The produced recombinant proteins were used for pull-down and immunoprecipitation experiments.

| Molecule | Co-purified with GST-tagged FnbB |
| --- | --- |
| HSPC 118: human protein interacting with FnbB, NCBI Protein GI 6841458 (protein) MVGGGGVGGGLLENANPLIYQRSGERPVTAGEEDEQVPDSIDAREIFDLIRSINDPEHPLTLEELNVVEQVRVQVSDPESTVAVAFTPTIPHCSMATLIGLSIKVKLLRSLPQRFKMDVHITPGTHASEHAVNKQLADKERVAAALENTHLLEVVNQCLSARS | could be co-purified |
| FLNA: human protein interacting with FnbB, NCBI Protein GI 15779184 (protein) MPSGKVAQPTITDNKDGTVTVRYAPSEAGLHEMDIRYDNMHIPGSPLQFYVDYVNCGHVTAYGPGLTHGVVNKPATFTVNTKDAGEGGLSLAIEGPSKAEISCTDNQDGTCSVSYLPVLPGDYSILVKYNEQHVPGSPFTARVTGDDSMRMSHLKVGSAADIPINISETDLSLLTATVVPPSGREEPCLLKRLRNGHVGISFVPKETGEHLVHVKKNGQHVASSPIPVVISQSEIGDASRVRVSGQGLHEGHTFEPAEFIIDTRDAGYGGLSLSIEGPSKVDINTEDLEDGTCRVTYCPTEPGNYIINIKFADQHVPGSPFSVKVTGEGRVKESITRRRRAPSVANVGSHCDLSLKIPEISIQDMTAQVTSPSGKTHEAEIVEGENHTYCIRFVPAEMGTHTVSVKYKGQHVPGSPFQFTVGPLGEGGAHKVRAGGPGLERAEAGVPAEFSIWTREAGAGGLAIAVEGPSKAEISFEDRKDGSCGVAYVVQEPGDYEVSVKFNEEHIPDSPFVVPVASPSGDARRLTVSSLQESGLKVNQPASFAVSLNGAKGAIDAKVHSPSGALEECYVTEIDQDKYAVRFIPRENGVYLIDVKFNGTHIPGSPFKIRVGEPGHGGDPGLVSAYGAGLEGGVTGNPAEFVVNTSNAGAGALSVTIDGPSKVKMDCQECPEGYRVTYTPMAPGSYLISIKYGGPYHIGGSPFKAKVTGPRLVSNHSLHETSSVFVDSLTKATCAPQHGAPGPGPADASKVVAKGLGLSKAYVGQKSSFTVDCSKAGNNMLLVGVHGPRTPCEEILVKHVGSRLYSVSYLLKDKGEYTLVVKWGDEHIPGSPYRVVVP | could be co-purified |
